Reference: US7888372B2, “Compositions and methods for modulating bone mineral deposition” (National Institutes of Health (NIH), priority 2001, dated 2011)
Substitutions are numbered along the chain they refer to. Names and notes keep the numbering of the source.

Key:
TNAP-/- mice = test: Administration of exogenous pyridoxal HCl to TNAP-/- mice; format: in vivo, mouse
Source text: At the time that we were developing the TNAP knock-out mice, Waymire et al. (Nature Genet. 11:45-51, 1995) independently reported the production of TNAP knock-out mice. […] These studies provided support to the hypothesis, set forth by Michael P. Whyte in his studies of human hypophosphatasia, that pyridoxal-5′-phosphate (vitamin B6) might be a natural substrate of TNAP. The rationale for this hypothesis is that pyridoxal-5′-phosphate cannot easily traverse biological membranes but that the related, more hydrophobic derivatives, pyridoxal and pyridoxamine can do so with much better kinetics. Thus, the presumption is that the cells that are deficient in TNAP cannot dephosphorylate pyridoxal-5′-phosphate on the outside of the cells leading to an intracellular deficiency of Vitamin B6 (Whyte, Endocrine Rev. 15:439-461, 1994). […] Control mice fed a vitamin B6-depleted diet developed epileptic seizures indistinguishable from those observed in TNAP−/− mice, abnormal apoptosis in the thymus and thinning of the nerve roots.

TNAP knock-out mice = TNAP knock-out mice of Waymire et al.; cited from earlier work
[1] = test system: wild-type osteoblastic cells; test: Predicted effect of factors expressed or delivered on PPi and mRNA expression; format: cell-based, mouse
Source text: In order to test the hypothesis that PPi itself represents the signaling molecule that influences the transcription of the TNAP, PC-1 and ANK genes, we examine the levels of TNAP, PC-1 and ANK in calvarial tissue and osteoblasts from the mutant mouse lines and in the rescued mouse strains and by measure mRNA for TNAP, PC-1 and ANK by Northern blot analysis. Subsequently, cells from the different mutant strains and rescued mice are exposed to medium with different concentrations of PPi, or non-hydrolyzable analogues (phosphocitrate and the biphosphonate etidronate), for various time points and tested for changes in mRNA levels of the three genes. In addition, in vitro cytoplasmic and nuclear microinjection of PPi and analogues into osteoblastic cells are performed to examine the effect of intracellular PPi on these same genes. Measurements of mRNA changes are monitored by real-time RT-PCR using an ABI 7700 Sequence Detection system to facilitate these measurements.
These evaluations are done on osteoblastic cells from the different mutant mice and cross-bred strains with or without rescue of the deficient molecule after specifically transfecting the respective cDNAs back into the deficient cells. As a control for the transfections, we employ mutant enzyme-deficient PC-1 (Johnson et al., J. Bone Miner. Res. 14:883-892, 1999; Johnson et al., Arthritis Rheum. 42:1986-1997, 1999), mutant ANK (Ho et al., Science 289:265-270, 2000), and mutant enzyme-deficient TNAP (Wennberg et al., J. Bone Mineral Res., 2000). The table summarizes the experiments to be performed and the results that are expected.

TNAP ko osteoblasts = test: Mineralization of bone nodules in primary TNAP ko osteoblast cultures (von Kossa); format: cell-based, mouse; conditions: added to the ko osteoblast culture medium
Method: Primary cultures of osteoblasts were isolated from calvariae of 1-4 day old pups that were hybrids of C57Bl/6×129/J mouse strains with wild-type, heterozygote and homozygote TNAP null genotypes. Isolation was performed by a slightly modified version of the time sequential collagenase technique described by Boonekamp et al. (Proc. Kon. Ned. Akad. Wet. B87:371-382, 1984). In brief, calvariae of the same genotype were pooled and three 10 minute incubations in 4 mM EDTA, 137 mM NaCl, 2.7 mM KCl, 3 mM NaH2PO4, pH 7.2, were performed, followed by seven 10 minute digestions in EDTA-free buffer, containing 180 units/ml collagenase type II (Worthington Biochemical Corporation, Lakewood, N.J.). All isolations were performed at 37° C. in a shaking water bath. The last five collagenase digestions, containing an enriched cell population of osteoblastic phenotype, were pooled and seeded at 4×10^4 cells/cm^2 in αMEM (Gibco BRL, Grand Island, N.Y.), containing 10% heat-inactivated FCS, penicillin (50 U/ml) and streptomycin ([…]).
To study mineralization, we used conditions under which we observed that osteoblasts normally formed von Kossa stain positive and alizarin red positive nodules at 7-10 days in culture. In brief, primary calvarial osteoblasts were cultured in complete αMEM media as described above, supplemented with β-glycerophosphate (10 mM) every third day and L-ascorbic acid (50 μg/ml) daily. MC3T3-E1 cells (Johnson et al., J. Bone Min. Res. 14:883-892, 1999) were maintained in the same medium, and for each experiment were plated at 80% confluence (1×10^6 cells in a 10 cm tissue-culture plastic dish in 5 ml) and received β-glycerophosphate and L-ascorbic acid as for primary osteoblasts above.
To evaluate the ability of primary osteoblasts to form and mineralize bone nodules in vitro, wild-type (wt), heterozygous and knock-out (ko) osteoblasts were cultured in media supplemented with ascorbic acid, using β-glycerophosphate as phosphate source. […] The extent of bone mineral deposition in these cultures was confirmed by quantifications of deposited calcium. […]

## Cc1ncc(CO)c(C=O)c1O.Cl [pyridoxal HCl]
TNAP-/- mice
  episodes of apnea: episodes of apnea ceased
  hypomineralization and accumulation of osteoid: continued to worsen with age
  life span: increased the life span
  myelinization of lumbar nerve roots: improved
  onset of epileptic attacks: delayed the onset of epileptic attacks

## Cc1ncc(CO)c(CO)c1O.Cl [vitamin B6]
TNAP knock-out mice
  epileptic seizures: partially rescue the epileptic seizures
  life span: prolonging their life

## ANK: factor expressed in wild-type osteoblastic cells by transfecting the cDNA (Table 1)
[1]
  Predicted effect on PPi, Extracellular: ⇑
  Predicted effect on PPi, Intracellular: ↓
  Predicted effect on mRNA expression, ANK: ↓
  Predicted effect on mRNA expression, TNAP: ⇑

B1: iPPiase: inorganic pyrophosphatase, factor expressed in wild-type osteoblastic cells (Table 1) (protein, UniProt Q15181 2-289, looked up)
Inorganic pyrophosphatase: SGFSTEERAAPFSLEYRVFLKNEKGQYISPFHDIPIYADKDVFHMVVEVPRWSNAKMEIATKDPLNPIKQDVKKGKLRYVANLFPYKGYIWNYGAIPQTWEDPGHNDKHTGCCGDNDPIDVCEIGSKVCARGEIIGVKVLGILAMIDEGETDWKVIAINVDDPDAANYNDINDVKRLKPGYLEATVDWFRRYKVPDGKPENEFAFNAEFKDKDFAIDIIKSTHDHWKALVTKKTNGKGISCMNTTLSESPFKCDPDAARAIVDALPPPCESACTVPTDVDKWFHHQKN
[1]
  Predicted effect on PPi, Extracellular: =
  Predicted effect on PPi, Intracellular: ↓
  Predicted effect on mRNA expression, ANK: ⇑
  Predicted effect on mRNA expression, PC-1: ⇑
  Predicted effect on mRNA expression, TNAP: ↓

B2: heat-inactivated recombinant TNAP: heat-inactivated recombinant TNAP (protein, UniProt P05186 18-501, looked up)
Alkaline phosphatase, …: LVPEKEKDPKYWRDQAQETLKYALELQKLNTNVAKNVIMFLGDGMGVSTVTAARILKGQLHHNPGEETRLEMDKFPFVALSKTYNTNAQVPDSAGTATAYLCGVKANEGTVGVSAATERSRCNTTQGNEVTSILRWAKDAGKSVGIVTTTRVNHATPSAAYAHSADRDWYSDNEMPPEALSQGCKDIAYQLMHNIRDIDVIMGGGRKYMYPKNKTDVEYESDEKARGTRLDGLDLVDTWKSFKPRYKHSHFIWNRTELLTLDPHNVDYLLGLFEPGDMQYELNRNNVTDPSLSEMVVVAIQILRKNPKGFFLLVEGGRIDHGHHEGKAKQALHEAVEMDRAIGQAGSLTSSEDTLTVVTADHSHVFTFGGYTPRGNSIFGLAPMLSDTDKKPFTAILYGNGPGYKVVGGERENVSMVDYAHNNYQAQSAVPLRHETHGGEDVAVFSKGPMAHLLHGVHEQNYVPHVMAYAACIGANLGHCAPAS
modifications: heat-inactivated
TNAP ko osteoblasts
  induction of mineralization: neither heat-inactivated recombinant TNAP, nor enzymatically inactive mutants of TNAP, such as [R54C]TNAP or [V365I]TNAP, were able to induce mineralization

B3: [V365I]TNAP: enzymatically inactive mutant of TNAP (protein, UniProt P05186 18-501, looked up, variant V365I)
Alkaline phosphatase, …: B2 Alkaline phosphatase, … with V365I
TNAP ko osteoblasts
  induction of mineralization: nor enzymatically inactive mutants of TNAP, such as [R54C]TNAP or [V365I]TNAP, were able to induce mineralization

B4: [R54C]TNAP: enzymatically inactive mutant of TNAP (protein, UniProt P05186 18-501, looked up, variant R54C)
Alkaline phosphatase, …: B2 Alkaline phosphatase, … with R54C
TNAP ko osteoblasts
  induction of mineralization: nor enzymatically inactive mutants of TNAP, such as [R54C]TNAP or [V365I]TNAP, were able to induce mineralization

B5: PC-1: factor expressed in wild-type osteoblastic cells by transfecting the cDNA (Table 1) (protein)
chain: MERDGDQAGHGPRHGSAGNGRELESPAAASLLAPMDLGEEPLEKAERARPAKDPNTYKVLSLVLSVCVLTTILGCIFGLKPSCAKEVKSCKGRCFERTFSNCRCDAACVSLGNCCLDFQETCVEPTHIWTCNKFRCGEKRLSRFVCSCADDCKTHNDCCINYSSVCQDKKSWVEETCESIDTPECPAEFESPPTLLFSLDGFRAEYLHTWGGLLPVISKLKNCGTYTKNMRPMYPTKTFPNHYSIVTGLYPESHGIIDNKMYDPKMNASFSLKSKEKFNPLWYKGQPIWVTANHQEVKSGTYFWPGSDVEIDGILPDIYKVYNGSVPFEERILAVLEWLQLPSHERPHFYTLYLEEPDSSGHSHGPVSSEVIKALQKVDRLVGMLMDGLKDLGLDKCLNLILISDHGMEQGSCKKYVYLNKYLGDVNNVKVVYGPAARLRPTDVPETYYSFNYEALAKNLSCREPNQHFRPYLKPFLPKRLHFAKSDRIEPLTFYLDPQWQLALNPSERKYCGSGFHGSDNLFSNMQALFIGYGPAFKHGAEVDSFENIEVYNLMCDLLGLIPAPNNGSHGSLNHLLKKPIYNPSHPKEEGFLSQCPIKSTSNDLGCTCDPWIVPIKDFEKQLNLTTEDVDDIYHMTVPYGRPRILLKQHHVCLLQQQQFLTGYSLDLLMPLWASYTFLRNDQFSRDDFSNCLYQDLRIPLSPVHKCSYYKSNSKLSYGFLTPPRLNRVSNHIYSEALLTSNIVPMYQSFQVIWHYLHDTLLQRYAHERNGINVVSGPVFDFDYDGRYDSLEILKQNSRVIRSQEILIPTHFFIVLTSCKQLSETPLECSALESSAYILPHRPDNIESCTHGKRESSWVEELLTLHRARVTDVELITGLSFYQDRQESVSELLRLKTHLPIFSQED
[1]
  Predicted effect on PPi, Extracellular: ⇑
  Predicted effect on PPi, Intracellular: ⇑
  Predicted effect on mRNA expression, PC-1: ↓
  Predicted effect on mRNA expression, TNAP: ⇑

B6: TNAP: factor expressed in wild-type osteoblastic cells by transfecting the cDNA (Table 1) (protein)
chain: FVPEKERDPSYWRQQAQETLKNALKLQKLNTNVAKNVIMFLGDGMGVSTVTAARILKGQLHHNTGEETRLEMDKFPFVALSKTYNTNAQVPDSAGTATAYLCGVKANEGTVGVSAATERTRCNTTQGNEVTSILRWAKDAGKSVGIVTTTRVNHATPSAAYAHSADRDWYSDNEMPPEALSQGCKDIAYQLMHNIKDIDVIMGGGRKYMYPKNRTDVEYELDEKARGTRLDGLDLISIWKSFKPRHKHSHYVWNRTELLALDPSRVDYLLGLFEPGDMQYELNRNNLTDPSLSEMVEVALRILTKNLKGFFLLVEGGRIDHGHHEGKAKQALHEAVEMDQAIGKAGAMTSQKDTLTVVTADHSHVFTFGGYTPRGNSIFGLAPMVSDTDKKPFTAILYGNGPGYKVVDGERENVSMVDYAHNNYQAQSAVPLRHETHGGEDVAVFAKGPMAHLLHGVHEQNYIPHVMAYASCIGANLDHCAWAG
[1]
  Predicted effect on PPi, Extracellular: ↓
  Predicted effect on PPi, Intracellular: ↓
  Predicted effect on mRNA expression, ANK: ⇑
  Predicted effect on mRNA expression, PC-1: ⇑
